Assay results as given in IntAct's records for PubMed 20080638.

B1: Chaperonin-containing T-complex member BBS12 (Homo sapiens), Q6ZW61 (parent)
chain: MVMACRVVNKRRHMGLQQLSSFAETGRTFLGPLKSSKFIIDEECHESVLISSTVRLLESLDLTSAVGQLLNEAVQAQNNTYRTGISTLLFLVGAWSSAVEECLHLGVPISIIVSVMSEGLNFCSEEVVSLHVPVHNIFDCMDSTKTFSQLETFSVSLCPFLQVPSDTDLIEELHGLKDVASQTLTISNLSGRPLKSYELFKPQTKVEADNNTSRTLKNSLLADTCCRQSILIHSRHFNRTDNTEGVSKPDGFQEHVTATHKTYRCNDLVELAVGLSHGDHSSMKLVEEAVQLQYQNACVQQGNCTKPFMFDISRIFTCCLPGLPETSSCVCPGYITVVSVSNNPVIKELQNQPVRIVLIEGDLTENYRHLGFNKSANIKTVLDSMRLQEDSSEELWANHVLQVLIQFKVNLVLVQGNVSERLIEKCINSKRLVIGSVNGSVMQAFAEAAGAVQVAYITQVNEDCVGDGVCVTFWRSSPLDVVDRNNRIAILLKTEGINLVTAVLTNPVTAQMQIKEDRFWTCAYRLYYALKEEKVFLGGGAVEFLCLSCLHILAEQSLKKENHACSGWLHNTSSWLASSLAIYRPTVLKFLANGWQKYLSTLLYNTANYSSEFEASTYIQHHLQNATDSGSPSSYILNEYSKLNSRIFNSDISNKLEQIPRVYDVVTPKIEAWRRALDLVLLVLQTDSEIITGHGHTQINSQELTGFLFL
partner: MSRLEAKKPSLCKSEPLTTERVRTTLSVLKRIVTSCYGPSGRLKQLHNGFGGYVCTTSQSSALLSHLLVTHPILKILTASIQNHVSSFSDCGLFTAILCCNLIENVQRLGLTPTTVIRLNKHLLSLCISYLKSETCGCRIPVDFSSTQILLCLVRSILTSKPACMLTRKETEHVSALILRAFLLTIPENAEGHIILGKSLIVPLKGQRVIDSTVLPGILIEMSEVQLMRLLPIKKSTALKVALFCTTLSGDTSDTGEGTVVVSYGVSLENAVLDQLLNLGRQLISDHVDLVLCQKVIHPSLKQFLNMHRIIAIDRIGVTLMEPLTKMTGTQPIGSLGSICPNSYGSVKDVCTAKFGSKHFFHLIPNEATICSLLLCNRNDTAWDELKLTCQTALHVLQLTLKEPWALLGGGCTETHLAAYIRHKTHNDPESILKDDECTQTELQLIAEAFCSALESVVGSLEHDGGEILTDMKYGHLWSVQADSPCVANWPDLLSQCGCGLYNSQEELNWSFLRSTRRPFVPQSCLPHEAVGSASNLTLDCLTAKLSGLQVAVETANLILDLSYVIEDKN
B2: Molecular chaperone MKKS (Homo sapiens), Q9NPJ1 (parent)
chain: B1 partner
partner: B1 chain
B3: BBSome complex assembly protein BBS10 (Homo sapiens), Q8TAM1 (parent)
chain: MLSSMAAAGSVKAALQVAEVLEAIVSCCVGPEGRQVLCTKPTGEVLLSRNGGRLLEALHLEHPIARMIVDCVSSHLKKTGDGAKTFIIFLCHLLRGLHAITDREKDPLMCENIQTHGRHWKNCSRWKFISQALLTFQTQILDGIMDQYLSRHFLSIFSSAKERTLCRSSLELLLEAYFCGRVGRNNHKFISQLMCDYFFKCMTCKSGIGVFELVDDHFVELNVGVTGLPVSDSRIIAGLVLQKDFSVYRPADGDMRMVIVTETIQPLFSTSGSEFILNSEAQFQTSQFWIMEKTKAIMKHLHSQNVKLLISSVKQPDLVSYYAGVNGISVVECLSSEEVSLIRRIIGLSPFVPPQAFSQCEIPNTALVKFCKPLILRSKRYVHLGLISTCAFIPHSIVLCGPVHGLIEQHEDALHGALKMLRQLFKDLDLNYMTQTNDQNGTSSLFIYKNSGESYQAPDPGNGSIQRPYQDTVAENKDALEKTQTYLKVHSNLVIPDVELETYIPYSTPTLTPTDTFQTVETLTCLSLERNRLTDYYEPLLKNNSTAYSTRGNRIEISYENLQVTNITRKGSMLPVSCKLPNMGTSQSYLSSSMPAGCVLPVGGNFEILLHYYLLNYAKKCHQSEETMVSMIIANALLGIPKVLYKSKTGKYSFPHTYIRAVHALQTNQPLVSSQTGLESVMGKYQLLTSVLQCLTKILTIDMVITVKRHPQKVHNQDSEDEL
partner: B1 chain
B4: BBSome complex assembly protein BBS10 (Homo sapiens), Q8TAM1 (parent)
chain: B3 chain
partner: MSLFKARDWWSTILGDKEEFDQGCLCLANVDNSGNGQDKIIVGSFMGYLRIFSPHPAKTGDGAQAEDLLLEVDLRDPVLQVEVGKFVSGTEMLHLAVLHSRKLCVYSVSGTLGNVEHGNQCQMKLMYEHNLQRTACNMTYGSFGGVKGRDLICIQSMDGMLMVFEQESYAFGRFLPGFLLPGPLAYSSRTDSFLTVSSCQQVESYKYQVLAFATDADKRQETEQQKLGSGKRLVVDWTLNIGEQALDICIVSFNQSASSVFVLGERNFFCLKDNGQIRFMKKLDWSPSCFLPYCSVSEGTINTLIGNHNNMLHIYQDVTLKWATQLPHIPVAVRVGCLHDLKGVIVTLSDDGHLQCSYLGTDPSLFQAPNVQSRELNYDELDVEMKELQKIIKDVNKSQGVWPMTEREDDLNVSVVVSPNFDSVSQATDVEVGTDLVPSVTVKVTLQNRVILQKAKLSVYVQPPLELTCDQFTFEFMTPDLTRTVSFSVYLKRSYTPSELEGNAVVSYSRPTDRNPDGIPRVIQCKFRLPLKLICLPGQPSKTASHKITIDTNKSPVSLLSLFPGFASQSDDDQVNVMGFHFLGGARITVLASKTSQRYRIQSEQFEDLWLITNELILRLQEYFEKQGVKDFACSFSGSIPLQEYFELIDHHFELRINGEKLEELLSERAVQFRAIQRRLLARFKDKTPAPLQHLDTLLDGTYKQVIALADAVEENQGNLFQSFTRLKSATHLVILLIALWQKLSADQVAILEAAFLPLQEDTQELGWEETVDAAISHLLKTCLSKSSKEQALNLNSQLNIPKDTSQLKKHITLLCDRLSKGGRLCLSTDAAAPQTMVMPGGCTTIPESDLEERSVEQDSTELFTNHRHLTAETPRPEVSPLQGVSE
B5: BBSome complex assembly protein BBS10 (Homo sapiens), Q8TAM1 (parent)
chain: B3 chain
partner: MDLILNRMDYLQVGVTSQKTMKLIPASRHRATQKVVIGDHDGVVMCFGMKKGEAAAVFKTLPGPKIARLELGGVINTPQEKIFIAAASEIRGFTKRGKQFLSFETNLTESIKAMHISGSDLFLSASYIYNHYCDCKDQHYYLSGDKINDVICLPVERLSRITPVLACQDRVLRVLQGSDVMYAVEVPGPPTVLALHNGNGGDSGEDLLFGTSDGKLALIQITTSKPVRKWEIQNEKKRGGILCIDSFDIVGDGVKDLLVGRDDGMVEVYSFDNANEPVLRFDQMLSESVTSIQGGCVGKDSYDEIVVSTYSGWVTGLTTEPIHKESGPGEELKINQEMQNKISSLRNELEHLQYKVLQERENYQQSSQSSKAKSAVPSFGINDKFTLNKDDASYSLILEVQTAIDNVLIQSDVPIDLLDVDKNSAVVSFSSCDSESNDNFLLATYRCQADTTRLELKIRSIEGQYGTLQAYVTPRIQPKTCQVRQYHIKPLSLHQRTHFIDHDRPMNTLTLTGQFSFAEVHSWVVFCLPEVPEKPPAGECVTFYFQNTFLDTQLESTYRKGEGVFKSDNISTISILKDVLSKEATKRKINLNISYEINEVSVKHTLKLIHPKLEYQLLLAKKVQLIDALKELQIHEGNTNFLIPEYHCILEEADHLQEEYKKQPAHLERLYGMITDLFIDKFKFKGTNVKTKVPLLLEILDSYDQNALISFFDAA

Variants of: B1
Conditions: with mkks_human MKKS

| effect of a mutation on the interaction | Variant |
| --- | --- |
| disrupting interaction | I346T |
| decreasing interaction | T501M |
| decreasing interaction | G540V |

Variants of: B2
Conditions: with bbs12_human BBS12, Q6ZW61

| effect of a mutation on the interaction | Variant |
| --- | --- |
| decreasing interaction | MSRLEAKKPSLCKSEPLTTERVRTTLSVLKRIVTSCYGPSGRLKQLHNGFGGYVCTASQSSALLSHLLVTHPILKILTASIQNHVSSFSDCGLFTAILCCNLIENVQRLGLTPTTVIRLNKHLLSLCISYLKSETCGCRIPVDFSSTQILLCLVRSILTSKPACMLTRKETEHVSALILRAFLLTIPENAEGHIILGKSLIVPLKGQRVIDSTVLPGILIEMSEVQLMRLLPIKKSTALKVALFCTTLSGDTSDTGEGTVVVSYGVSLENAVLDQLLNLGRQLISDHVDLVLCQKVIHPSLKQFLNMHRIIAIDRIGVTLMEPLTKMTGTQPIGSLGSICPNSYGSVKDVCTAKFGSKHFFHLIPNEATICSLLLCNRNDTAWDELKLTCQTALHVLQLTLKEPWALLGGGCTETHLAAYIRHKTHNDPESILKDDECTQTELQLIAEAFCSALESVVGSLEHDGGEILTDMKYGHLWSVQADSPCVANWPDLLSQCGCGLYNSQEELNWSFLRSTRRPFVPQSCLPHEAVGSASNLTLDCLTAKLSGLQVAVETANLILDLSYVIEDKN [T57A] |

Variants of: B3
Conditions: with bbs12_human BBS12, Q6ZW61

| Variant | effect of a mutation on the interaction |
| --- | --- |
| V240G | decreasing interaction |
| D81N | decreasing interaction |

Further lines, results first:

| effect of a mutation on the interaction | Variant |
| --- | --- |
| decreasing interaction | S311A |
| decreasing interaction | S329L |

Variants of: B4
Conditions: with pthb1_human BBS9, Q3SYG4

| effect of a mutation on the interaction | Variant |
| --- | --- |
| decreasing interaction | R49W |
| decreasing interaction | D81N |

Variants of: B5
Conditions: with bbs7_human BBS7, Q8IWZ6

| effect of a mutation on the interaction | Variant |
| --- | --- |
| decreasing interaction | V240G |
| decreasing interaction | D81N |
| decreasing interaction | R34P |
